Laboratory results taken from patent US11168316B2, “Chimeric clotting factors” (Bioverativ Therapeutics Inc., priority 2012, dated 2021).
Ends that are not written are not given here.

Molecular target: T1, thrombin (Homo sapiens, UniProt P00734)
T1 construct: followed by 50 μL of thrombin (278 nM, 10 μg/mL)
Test: Cleavage of peptides by 1.4 nM thrombin (HPLC)
Type: biochemical
Conditions: 50 μM peptide, 37° C.
Experimental: FIG. 19 depicts the cleavage of Compounds 1, 4, 5 and 6 by 1.4 nM thrombin. Compounds 1, 4 and 5 incorporate PABC and different thrombin-cleavable substrates. 50 μL of peptide (1 mM) in water was added to 900 μL PBS. The mixture was incubated at 37° C. for 30 min, followed by 50 μL of thrombin (27.8 nM, 1 μg/mL), giving the following approximate initial concentrations: thrombin=1.4 nM, peptide=50 μM. The mixture was incubated at 37° C. Aliquots (95 μL) at various time points were quenched with 5 μL of hirudin (2 μM) and injected into the HPLC (C-18 column, CH3CN/H2O, 0 to 70% over 12 minutes, 60° C. 0.5 mL/min, λ=280 nm). The decreases of peptide peak areas were used to calculate yield.

- thrombin-mediated release of peptide IVGGQE: not observed
Substance: Ala-Leu-Val-Pro-Arg-Ile-Val-Gly-Gly-Gln-Glu-NH2 (ALVPRIVGGQE-NH2; also: PABC self-immolative linker, place not given here) [Compound 6]
